Legend:
[1] = target: mTfR-1 N253A on Expi293 cells (mouse) (UniProt Q62351); assay: FACS, transfected Expi293 cells
[2] = target: mTfR-1 S255A on Expi293 cells (mouse) (UniProt Q62351); assay: FACS, transfected Expi293 cells
[3] = target: mTfR-1 L256A on Expi293 cells (mouse) (UniProt Q62351); assay: FACS, transfected Expi293 cells; mutant poorly expressed
mTfR-1 L256A on Expi293 cells (mouse), sequence (Q62351 whole entry L256A): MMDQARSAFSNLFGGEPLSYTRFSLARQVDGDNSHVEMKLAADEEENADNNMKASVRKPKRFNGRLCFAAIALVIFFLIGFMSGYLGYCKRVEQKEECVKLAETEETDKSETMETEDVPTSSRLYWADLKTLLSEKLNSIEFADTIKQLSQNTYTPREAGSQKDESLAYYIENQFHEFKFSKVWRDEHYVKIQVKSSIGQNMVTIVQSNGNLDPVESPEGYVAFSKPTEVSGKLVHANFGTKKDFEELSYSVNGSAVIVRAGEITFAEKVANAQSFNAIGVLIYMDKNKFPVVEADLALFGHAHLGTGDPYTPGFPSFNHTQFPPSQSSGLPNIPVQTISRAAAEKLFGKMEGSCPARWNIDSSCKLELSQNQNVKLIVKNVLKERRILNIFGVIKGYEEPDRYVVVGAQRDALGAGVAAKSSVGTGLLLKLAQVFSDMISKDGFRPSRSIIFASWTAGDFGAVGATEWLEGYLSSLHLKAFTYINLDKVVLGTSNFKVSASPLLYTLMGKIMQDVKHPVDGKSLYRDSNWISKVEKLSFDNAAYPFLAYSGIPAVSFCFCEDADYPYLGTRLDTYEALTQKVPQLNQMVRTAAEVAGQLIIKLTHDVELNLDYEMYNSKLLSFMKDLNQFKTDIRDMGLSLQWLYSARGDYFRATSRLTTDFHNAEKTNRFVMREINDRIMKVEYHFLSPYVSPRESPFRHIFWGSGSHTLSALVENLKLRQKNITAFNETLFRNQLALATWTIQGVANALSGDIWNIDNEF

mTfR-1 N253A on Expi293 cells (mouse), sequence (Q62351 whole entry N253A): as the sequence (Q62351 whole entry L256A) above, with N253A, A256L counted along it
mTfR-1 S255A on Expi293 cells (mouse), sequence (Q62351 whole entry S255A): as the sequence (Q62351 whole entry L256A) above, with S255A, A256L counted along it

| % double-positive cells vs WT [1] | % double-positive cells vs WT [2] | % double-positive cells vs WT [3] | Binder |
| --- | --- | --- | --- |
| 27% | 19% | – | Clone C variant 13 VNAR-hFc (Fc fusion, not shown: a dimerising Fc or GST) ARVDQTPQTITKETGESLTINCVLRDSNCALSSTYWYRKKSGSTNEENISKGGRYVETVNSGSKSFSLRINDLTVEDSGTYRCNVVQYPQQDNYFWCDVYGDGTAVTVN |
| – | – | 1% | Clone C VNAR-hFc fusion (Fc fusion, not shown: a dimerising Fc or GST) ARVDQTPQTITKETGESLTINCVLRDSNCALSSTYWYRKKSGSTNEENISKGGRYVETVNSGSKSFSLRINDLTVEDSGTYRCNVVQYPSYNNYFWCDVYGDGTAVTVN |

Reference: patent US20210403591A1
